From patent publication US20150309012A1 (BAXTER INTERNATIONAL, published 2015) come the findings set out here.

Common to all, as to test: cell-based or functional assay
The target in assay [1] is T1, oxMIF on the cell surface of U937 human monocytic cells (human, UniProt P14174 2-115, oxidised isoform (oxMIF); residues not stated).
In assay [2] the target is T1, oxMIF on the cell surface of U937 human …. The source holds these as a separate data set.
For assay [3] the target is unchanged. This is another data set of the same source.

T1 sequence (P14174 2-115): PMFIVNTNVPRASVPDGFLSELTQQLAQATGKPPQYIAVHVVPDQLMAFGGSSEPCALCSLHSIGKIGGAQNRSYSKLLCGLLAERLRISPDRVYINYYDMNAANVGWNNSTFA

B1: anti-oxMIF antibody RAM9 (antibody, human IgG1, kappa, V domains shown)
VH: EVQLLESGGGLVQPGGSLRLSCAASGFTFSIYSMNWVRQAPGKGLEWVSSIGSSGGTTYYADSVKGRFTISRDNSKNTLYLQMNSLRAEDTAVYYCAGSQWLYGMDVWGQGTTVTVSS
VL: DIQMTQSPSSLSASVGDRVTITCRSSQRIMTYLNWYQQKPGKAPKLLIFVASHSQSGVPSRFRGSGSETDFTLTISGLQPEDSATYYCQQSFWTPLTFGGGTKVEIKR
On to B1, for which the “IC50 (inhibition of cell migration, chemokinesis assay, MI against log RAM9)” value in assay [1] amounted to 0.8 nM. For the same molecule, in assay [2], the “IC50 of inhibition of random migration (chemokinesis) of U937 cells, Transwell, antibody in lower chamber; 25 experiments (38 plates)” value came out at 800 pM and the “IC50 of inhibition of random migration (chemokinesis) of U937 cells, Transwell, antibody in lower chamber; duplicate plates (26 plates from 13 experiments)” value was determined as 800 pM. In assay [3], the “IC 50 of migration inhibition of U937 cells, antibody in the inserts (upper chamber), plate 2” value is 1100 pM.
